Results taken from patent US20030126647A1 (published 2003).

T1: full-length FIS2 polypeptide (Arabidopsis thaliana, UniProt P0DKJ7 1-813, limits assumed)
T1 construct: The full-length FIS2 cDNA was cloned into pGBT9 and pGAD424; the vector-encoded fusion domain is not included
T1 sequence: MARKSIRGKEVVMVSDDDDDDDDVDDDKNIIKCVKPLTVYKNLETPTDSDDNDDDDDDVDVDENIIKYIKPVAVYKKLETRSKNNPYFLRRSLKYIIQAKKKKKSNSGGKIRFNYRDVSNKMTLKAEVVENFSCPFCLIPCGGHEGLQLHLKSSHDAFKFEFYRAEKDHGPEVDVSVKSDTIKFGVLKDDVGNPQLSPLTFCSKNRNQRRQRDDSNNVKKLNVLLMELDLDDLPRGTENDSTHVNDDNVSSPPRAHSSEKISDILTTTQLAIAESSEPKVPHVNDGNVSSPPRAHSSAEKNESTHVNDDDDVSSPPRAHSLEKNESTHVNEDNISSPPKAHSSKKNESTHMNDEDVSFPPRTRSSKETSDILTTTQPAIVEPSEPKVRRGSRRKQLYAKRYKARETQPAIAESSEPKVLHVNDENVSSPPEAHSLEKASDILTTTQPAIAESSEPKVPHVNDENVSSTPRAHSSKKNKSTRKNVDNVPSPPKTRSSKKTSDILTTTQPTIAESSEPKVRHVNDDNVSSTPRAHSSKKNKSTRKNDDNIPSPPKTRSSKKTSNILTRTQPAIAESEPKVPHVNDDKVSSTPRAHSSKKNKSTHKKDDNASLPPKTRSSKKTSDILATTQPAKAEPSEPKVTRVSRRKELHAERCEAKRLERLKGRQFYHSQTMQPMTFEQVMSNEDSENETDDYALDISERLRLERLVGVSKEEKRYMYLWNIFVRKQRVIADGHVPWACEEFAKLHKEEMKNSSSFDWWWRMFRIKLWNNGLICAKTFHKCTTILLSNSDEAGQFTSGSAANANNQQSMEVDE

B1: full-length FIS1 polypeptide (other)
chain: MEKENHEDDGEGLPPELNQIKEQIEKERFLHIKRKFELRYIPSVATHASHHQSFDLNQPAAEDDNGGDNKSLLSRMQNPLRHFSASSDYNSYEDQGYVLDEDQDYALEEDVPLFLDEDVPLLPSVKLPIVEKLPRSITWVFTKSSQLMAESDSVIGKRQIYYLNGEALELSSEEDEEDEEEDEEEIKKEKCEFSEDVDRFIWTVGQDYGLDDLVVRRALAKYLEVDVSDILERYNELKLKNDGTAGEASDLTSKTITTAFQDFADRRHCRRCMIFDCHMHEKYEPESRSSEDKSSLFEDEDRQPCSEHCYLKVRSVTEADHVMDNDNSISNKIVVSDPNNTMWTPVEKDLYLKGIEIFGRNSCDVALNILRGLKTCLEIYNYMREQDQCTMSLDLNKTTQRHNQVTKKVSRKSSRSVRKKSRLRKYARYPPALKKTTSGEAKFYKHYTPCTCKSKCGQQCPCLTHENCCEKYCGCSKDCNNRFGGCNCAIGQCTNRQCPCFAANRECDPDLCRSCPLSCGDGTLGETPVQIQCKNMQFLLQTNKKILIGKSDVHGWGAFTWDSLKKNEYLGEYTGELITHDEANERGRIEDRIGSSYLFTLNDQLEIDARRKGNEFKFLNHSARPNCYAKLMIVRGDQRIGLFAERAIEEGEELFFDYCYGPEHADWSRGREPRKTGASKRSKEARPAR
notes: Expressed in yeast from the two-hybrid vectors pGBT9 and pGAD424, so it was a fusion with the vector-encoded domain; also called MEDEA/FIS1; MEA
B2: full-length FIS3 polypeptide (other)
chain: MSKITLGNESIVGSLTPSNKKSYKVTNRIQEGKKPLYAVVFNFLDARFFDVFVTAGGNRITLYNCLGDGAISALQSYADEDKEESFYTVSWACGVNGNPYVAAGGVKGIIRVIDVNSETIHKSLVGHGDSVNEIRTQPLKPQLVITASKDESVRLWNVETGICILIFAGAGGHRYEVLSVDFHPSDIYRFASCGMDTTIKIWSMKEFWTYVEKSFTWTDDPSKFPTKFVQFPVFTASIHTNYVDCNRWFGDFILSKSVDNEILLWEPQLKENSPGEGASDVLLRYPVPMCDIWFIKFSCDLHLSSVAIGNQEGKVYVWDLKSCPPVLITKLSHNQSKSVIRQTAMSVDGSTILACCEDGTIWRWDVITK
notes: The full-length FIS3 cDNA was cloned into pGBT9 and pGAD424; the vector-encoded fusion domain is not included; also called FIE
B3: FIS1 deletion mutant Bcl (320 amino acid polypeptide comprising the A and C5 regions only) (other)
chain: MEKENHEDDGEGLPPELNQIKEQIEKERFLHIKRKFELRYIPSVATHASHHQSFDLNQPAAEDDNGGDNKSLLSRMQNPLRHFSASSDYNSYEDQGYVLDEDQDYALEEDVPLFLDEDVPLLPSVKLPIVEKLPRSITWVFTKSSQLMAESDSVIGKRQIYYLNGEALELSSEEDEEDEEEDEEEIKKEKCEFSEDVDRFIWTVGQDYGLDDLVVRRALAKYLEVDVSDILERYNELKLKNDGTAGEASDLTSKTITTAFQDFADRRHCRRCMIFDCHMHEKYEPESRSSEDKSSLFEDEDRQPCSEHCYLKVRSVTEAD
notes: Expressed as a yeast two-hybrid vector fusion (pGBT9 / pGAD424); the fusion domain is not included; also called delta-Bcl; truncated FIS1 having the C-terminal 369 amino acids containing the N, CXC and SET domains deleted

Experiments:
yeast two-hybrid = target: the molecule itself; test: yeast two-hybrid
Excerpt: (§1) In particular, the full-length FIS1 cDNA sequence, encoding a 689 amino acid polypeptide comprising the A, C5, N, CXC and SET domains, and the deletion mutants designated: ΔBgl, encoding a 513 amino acid polypeptide and lacking the C-terminal SET domain-encoding region; ΔBcl, encoding a 320 amino acid polypeptide and lacking the C-terminal N, CXC and SET domain-encoding regions; ΔPst, encoding a 62 amino acid polypeptide and lacking the C-terminal portion of FIS1 comprising the five domain-encoding regions; and Δ160, lacking 160 bp at the 5′-end of the FIS1 cDNA, were constructed (FIG. 27). The full-length FIS2 and FIS3 cDNAs were also used. Control constructs, employing the empty vectors pGBT9 and pGAD424, or alternatively the EzA1 cDNA, were also used. Each cDNA was cloned into each vector and yeast were transformed with vectors expressing different FIS polypeptides, in the presence of adenine selection and β-Galactosidase activation, to select for cells expressing from both constructs.

[1] = target: T1, full-length FIS2 polypeptide; test: yeast two-hybrid (pGBT9 / pGAD424, adenine selection and beta-galactosidase)
Excerpt: as §1

[2] = target: B1; test: yeast two-hybrid
Excerpt: as §1

[3] = target: B2; test: yeast two-hybrid
Excerpt: as §1

Binder	binding result (yeast two-hybrid)	binding result [1]	binding result [2]	binding result [3]
B1	binds			
B2		no binding	binds	
B3			binds	binds
